Measurements taken from the Human Domainome abundance scans (Beltran et al. 2025).
± gives the uncertainty stated by the source.

B1: Segment polarity protein dishevelled homolog DVL-3, residues 2 to 81; numbered along this chain, Q92997 (parent)
chain: GETKIIYHLDGQETPYLVKLPLPAERVTLADFKGVLQRPSYKFFFKSMDDDFGVVKEEISDDNAKLPCFNGRVVSWLVSA

Variants of: B1
Assay: abundance fitness (aPCA) (normalised: wild type 0, dead -1); higher = more abundant; growth selection in yeast, the domain comes from the species named
Conditions: Homo sapiens

Variant	abundance fitness
GETKRIYHLDGQETPYLVKLPLPAERVTLADFKGVLQRPSYKFFFKSMDDDFGVVKEEISDDNAKLPCFNGRVVSWLVSA [I5R]	-0.784 ± 0.069
GETKEIYHLDGQETPYLVKLPLPAERVTLADFKGVLQRPSYKFFFKSMDDDFGVVKEEISDDNAKLPCFNGRVVSWLVSA [I5E]	-0.767 ± 0.11
GETKFIYHLDGQETPYLVKLPLPAERVTLADFKGVLQRPSYKFFFKSMDDDFGVVKEEISDDNAKLPCFNGRVVSWLVSA [I5F]	-0.815 ± 0.17
GETKTIYHLDGQETPYLVKLPLPAERVTLADFKGVLQRPSYKFFFKSMDDDFGVVKEEISDDNAKLPCFNGRVVSWLVSA [I5T]	-0.437 ± 0.1
GETKYIYHLDGQETPYLVKLPLPAERVTLADFKGVLQRPSYKFFFKSMDDDFGVVKEEISDDNAKLPCFNGRVVSWLVSA [I5Y]	-0.969 ± 0.23
GETKGIYHLDGQETPYLVKLPLPAERVTLADFKGVLQRPSYKFFFKSMDDDFGVVKEEISDDNAKLPCFNGRVVSWLVSA [I5G]	-0.643 ± 0.056
GETKDIYHLDGQETPYLVKLPLPAERVTLADFKGVLQRPSYKFFFKSMDDDFGVVKEEISDDNAKLPCFNGRVVSWLVSA [I5D]	-0.973 ± 0.18
GETKSIYHLDGQETPYLVKLPLPAERVTLADFKGVLQRPSYKFFFKSMDDDFGVVKEEISDDNAKLPCFNGRVVSWLVSA [I5S]	-0.765 ± 0.099
GETKKIYHLDGQETPYLVKLPLPAERVTLADFKGVLQRPSYKFFFKSMDDDFGVVKEEISDDNAKLPCFNGRVVSWLVSA [I5K]	-1.16 ± 0.21
GETKVIYHLDGQETPYLVKLPLPAERVTLADFKGVLQRPSYKFFFKSMDDDFGVVKEEISDDNAKLPCFNGRVVSWLVSA [I5V]	-0.265 ± 0.058
GETKHIYHLDGQETPYLVKLPLPAERVTLADFKGVLQRPSYKFFFKSMDDDFGVVKEEISDDNAKLPCFNGRVVSWLVSA [I5H]	-0.514 ± 0.17
GETKAIYHLDGQETPYLVKLPLPAERVTLADFKGVLQRPSYKFFFKSMDDDFGVVKEEISDDNAKLPCFNGRVVSWLVSA [I5A]	-0.837 ± 0.11
GETKWIYHLDGQETPYLVKLPLPAERVTLADFKGVLQRPSYKFFFKSMDDDFGVVKEEISDDNAKLPCFNGRVVSWLVSA [I5W]	-0.625 ± 0.073
GETKCIYHLDGQETPYLVKLPLPAERVTLADFKGVLQRPSYKFFFKSMDDDFGVVKEEISDDNAKLPCFNGRVVSWLVSA [I5C]	-0.535 ± 0.11
GETKPIYHLDGQETPYLVKLPLPAERVTLADFKGVLQRPSYKFFFKSMDDDFGVVKEEISDDNAKLPCFNGRVVSWLVSA [I5P]	-0.543 ± 0.11
GETKMIYHLDGQETPYLVKLPLPAERVTLADFKGVLQRPSYKFFFKSMDDDFGVVKEEISDDNAKLPCFNGRVVSWLVSA [I5M]	-0.803 ± 0.12
GETKLIYHLDGQETPYLVKLPLPAERVTLADFKGVLQRPSYKFFFKSMDDDFGVVKEEISDDNAKLPCFNGRVVSWLVSA [I5L]	-0.698 ± 0.085
GGTKIIYHLDGQETPYLVKLPLPAERVTLADFKGVLQRPSYKFFFKSMDDDFGVVKEEISDDNAKLPCFNGRVVSWLVSA [E2G]	-0.62 ± 0.068

Variant	abundance fitness
GMTKIIYHLDGQETPYLVKLPLPAERVTLADFKGVLQRPSYKFFFKSMDDDFGVVKEEISDDNAKLPCFNGRVVSWLVSA [E2M]	-0.281 ± 0.093
GQTKIIYHLDGQETPYLVKLPLPAERVTLADFKGVLQRPSYKFFFKSMDDDFGVVKEEISDDNAKLPCFNGRVVSWLVSA [E2Q]	-0.194 ± 0.085
GLTKIIYHLDGQETPYLVKLPLPAERVTLADFKGVLQRPSYKFFFKSMDDDFGVVKEEISDDNAKLPCFNGRVVSWLVSA [E2L]	-0.341 ± 0.07
GVTKIIYHLDGQETPYLVKLPLPAERVTLADFKGVLQRPSYKFFFKSMDDDFGVVKEEISDDNAKLPCFNGRVVSWLVSA [E2V]	-0.129 ± 0.051
GCTKIIYHLDGQETPYLVKLPLPAERVTLADFKGVLQRPSYKFFFKSMDDDFGVVKEEISDDNAKLPCFNGRVVSWLVSA [E2C]	-0.038 ± 0.08
GSTKIIYHLDGQETPYLVKLPLPAERVTLADFKGVLQRPSYKFFFKSMDDDFGVVKEEISDDNAKLPCFNGRVVSWLVSA [E2S]	-0.082 ± 0.059
GWTKIIYHLDGQETPYLVKLPLPAERVTLADFKGVLQRPSYKFFFKSMDDDFGVVKEEISDDNAKLPCFNGRVVSWLVSA [E2W]	-0.121 ± 0.076
GTTKIIYHLDGQETPYLVKLPLPAERVTLADFKGVLQRPSYKFFFKSMDDDFGVVKEEISDDNAKLPCFNGRVVSWLVSA [E2T]	-0.079 ± 0.066
GHTKIIYHLDGQETPYLVKLPLPAERVTLADFKGVLQRPSYKFFFKSMDDDFGVVKEEISDDNAKLPCFNGRVVSWLVSA [E2H]	-0.164 ± 0.1
GPTKIIYHLDGQETPYLVKLPLPAERVTLADFKGVLQRPSYKFFFKSMDDDFGVVKEEISDDNAKLPCFNGRVVSWLVSA [E2P]	-0.491 ± 0.11
GNTKIIYHLDGQETPYLVKLPLPAERVTLADFKGVLQRPSYKFFFKSMDDDFGVVKEEISDDNAKLPCFNGRVVSWLVSA [E2N]	0.052 ± 0.09
GATKIIYHLDGQETPYLVKLPLPAERVTLADFKGVLQRPSYKFFFKSMDDDFGVVKEEISDDNAKLPCFNGRVVSWLVSA [E2A]	-0.511 ± 0.077
GRTKIIYHLDGQETPYLVKLPLPAERVTLADFKGVLQRPSYKFFFKSMDDDFGVVKEEISDDNAKLPCFNGRVVSWLVSA [E2R]	-0.579 ± 0.072
GYTKIIYHLDGQETPYLVKLPLPAERVTLADFKGVLQRPSYKFFFKSMDDDFGVVKEEISDDNAKLPCFNGRVVSWLVSA [E2Y]	-0.049 ± 0.083
GDTKIIYHLDGQETPYLVKLPLPAERVTLADFKGVLQRPSYKFFFKSMDDDFGVVKEEISDDNAKLPCFNGRVVSWLVSA [E2D]	-0.516 ± 0.11
GKTKIIYHLDGQETPYLVKLPLPAERVTLADFKGVLQRPSYKFFFKSMDDDFGVVKEEISDDNAKLPCFNGRVVSWLVSA [E2K]	-0.723 ± 0.13
GETKIAYHLDGQETPYLVKLPLPAERVTLADFKGVLQRPSYKFFFKSMDDDFGVVKEEISDDNAKLPCFNGRVVSWLVSA [I6A]	-0.578 ± 0.078
